Measurements published in publication PMC8733265, “Microscale thermophoresis suggests a new model of regulation of cardiac myosin function via interaction with cardiac myosin-binding protein C” (The Journal of Biological Chemistry, 2021).
Each block holds one molecule with its values, some of them ahead of it.

B2: recombinant human cardiac myosin tail domain, first 126 amino acids of myosin subfragment-2 (myosin S2Δ) (domain or fragment, UniProt P12883 838-963, looked up)
chain: PLLKSAEREKEMASMKEEFTRLKEALEKSEARRKELEEKMVSLLQEKNDLQLQVQAEQDNLADAEERCDQLIKNKIQLEAKVKEMNERLEDEEEMNAELTAKKRKLEDECSELKRDIDDLELTLAK
modifications: Alexa 647-NHS label where it was the labelled partner; unlabelled where it was titrated
notes: human cardiac (β) myosin heavy chain, first 126 amino acids of subfragment-2; also called myosin tails; source: E. coli BL21(DE3)-RIPL, purified (HisTrapFF, TEV, ion exchange); not shown: His tag, N-terminal, cleaved

What was measured:
[1] = target: bovine β-cardiac myosin S1 (bovine) (UniProt Q9BE39); assay: MST; Monolith NT.115; 100 nmol/l Alexa647-labelled protein fixed, partner titrated; 20 mmol/l Mops pH 7, 1 mmol/l MgCl2, 50 mmol/l KCl, 1 mmol/l DTT, 0.05% Tween-20
bovine β-cardiac myosin S1 (bovine), sequence (Q9BE39 whole entry, chain 1 of 2, the tested form may be a part): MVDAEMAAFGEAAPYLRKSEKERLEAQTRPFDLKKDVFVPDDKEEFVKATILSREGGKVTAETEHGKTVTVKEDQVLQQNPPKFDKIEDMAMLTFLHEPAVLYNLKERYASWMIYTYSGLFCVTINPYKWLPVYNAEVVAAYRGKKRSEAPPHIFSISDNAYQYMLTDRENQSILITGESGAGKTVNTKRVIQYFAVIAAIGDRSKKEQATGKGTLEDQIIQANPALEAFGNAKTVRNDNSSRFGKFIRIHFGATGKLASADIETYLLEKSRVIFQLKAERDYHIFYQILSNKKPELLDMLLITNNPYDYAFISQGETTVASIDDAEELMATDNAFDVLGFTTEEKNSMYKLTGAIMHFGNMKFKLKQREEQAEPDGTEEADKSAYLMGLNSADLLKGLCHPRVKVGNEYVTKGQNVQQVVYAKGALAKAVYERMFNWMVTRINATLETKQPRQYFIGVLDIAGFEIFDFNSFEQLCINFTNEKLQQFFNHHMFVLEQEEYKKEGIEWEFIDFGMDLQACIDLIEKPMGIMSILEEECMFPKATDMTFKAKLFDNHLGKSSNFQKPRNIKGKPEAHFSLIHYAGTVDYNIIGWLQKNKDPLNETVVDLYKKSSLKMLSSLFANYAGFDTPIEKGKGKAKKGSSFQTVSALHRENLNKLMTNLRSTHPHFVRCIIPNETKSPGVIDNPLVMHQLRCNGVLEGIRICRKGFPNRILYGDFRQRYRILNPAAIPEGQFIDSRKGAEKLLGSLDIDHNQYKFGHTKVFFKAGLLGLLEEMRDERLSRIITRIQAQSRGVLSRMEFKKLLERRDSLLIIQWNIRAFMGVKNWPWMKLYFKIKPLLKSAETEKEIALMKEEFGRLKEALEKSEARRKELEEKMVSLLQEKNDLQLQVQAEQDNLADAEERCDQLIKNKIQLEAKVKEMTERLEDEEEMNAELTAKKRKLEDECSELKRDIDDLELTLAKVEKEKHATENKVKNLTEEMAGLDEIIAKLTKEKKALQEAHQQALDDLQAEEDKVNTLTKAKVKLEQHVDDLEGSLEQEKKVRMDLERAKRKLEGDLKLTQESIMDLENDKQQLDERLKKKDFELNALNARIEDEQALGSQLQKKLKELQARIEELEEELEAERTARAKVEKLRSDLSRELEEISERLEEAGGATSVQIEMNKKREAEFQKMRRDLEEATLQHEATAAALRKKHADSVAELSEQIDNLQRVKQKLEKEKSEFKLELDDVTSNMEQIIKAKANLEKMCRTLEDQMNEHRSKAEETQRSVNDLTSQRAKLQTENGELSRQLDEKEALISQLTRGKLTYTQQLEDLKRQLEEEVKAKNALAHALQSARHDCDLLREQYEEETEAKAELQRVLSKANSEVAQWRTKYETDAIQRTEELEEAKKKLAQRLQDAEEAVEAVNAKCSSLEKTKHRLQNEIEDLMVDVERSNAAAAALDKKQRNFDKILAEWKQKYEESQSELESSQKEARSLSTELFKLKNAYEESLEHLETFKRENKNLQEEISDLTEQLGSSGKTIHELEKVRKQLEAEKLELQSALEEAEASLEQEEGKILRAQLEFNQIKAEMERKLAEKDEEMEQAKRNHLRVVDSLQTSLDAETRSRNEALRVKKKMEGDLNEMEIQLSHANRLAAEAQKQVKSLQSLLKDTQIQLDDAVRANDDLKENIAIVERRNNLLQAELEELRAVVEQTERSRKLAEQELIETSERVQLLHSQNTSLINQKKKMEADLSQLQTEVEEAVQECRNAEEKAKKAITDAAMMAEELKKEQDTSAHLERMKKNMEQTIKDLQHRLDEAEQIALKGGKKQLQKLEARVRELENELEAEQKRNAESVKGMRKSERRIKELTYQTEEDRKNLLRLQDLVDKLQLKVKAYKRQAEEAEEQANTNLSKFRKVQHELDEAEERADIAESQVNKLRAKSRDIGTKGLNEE
bovine β-cardiac myosin S1 (bovine), sequence (P85100 whole entry, chain 2 of 2, further chain, the tested form may be a part): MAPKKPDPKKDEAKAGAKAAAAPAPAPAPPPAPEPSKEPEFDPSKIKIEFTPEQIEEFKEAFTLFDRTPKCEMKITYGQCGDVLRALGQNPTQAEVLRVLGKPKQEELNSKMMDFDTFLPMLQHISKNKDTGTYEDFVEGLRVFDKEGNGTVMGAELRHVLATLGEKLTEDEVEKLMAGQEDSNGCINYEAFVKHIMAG

[2] = target: bovine β-cardiac myosin S1 (bovine) (UniProt Q9BE39); assay: MST; competition: C5C7 titrated into a mixture of Alexa647-labelled myosin S1 and C2C4
[3] = target: recombinant human cardiac myosin tail domain, first 126 amino acids of myosin subfragment-2 (myosin S2Δ) (human) (UniProt P12883); assay: MST; Monolith NT.115; 100 nmol/l Alexa647-labelled protein fixed, partner titrated; 20 mmol/l Mops pH 7, 1 mmol/l MgCl2, 50 mmol/l KCl, 1 mmol/l DTT, 0.05% Tween-20
[4] = target: human cardiac myosin tail domain (myosin S2Δ; also the heavy-chain part of miniHMM) miniHMM heavy-chain part containing myosin S2Δ (UniProt P12883); assay: microscale thermophoresis titration; conditions: reference: unphosphorylated C0C2
[5] = target: human cardiac myosin tail domain (myosin S2Δ; also the heavy-chain part of miniHMM) miniHMM heavy-chain part containing myosin S2Δ (UniProt P12883); assay: microscale thermophoresis titration; conditions: reference: unphosphorylated C0C2; remark: listed apart in the source
[6] = target: bovine β-cardiac myosin S1 myosin S1 (head domain) (UniProt Q9BE39); assay: microscale thermophoresis titration; conditions: reference: unphosphorylated C0C2
[7] = target: cMyBP-C (cardiac myosin-binding protein C) C0C2 (C0-P/A-C1-m-C2) (UniProt Q14896); assay: microscale thermophoresis titration; conditions: reference: unphosphorylated miniHMM
[8] = target: cMyBP-C (cardiac myosin-binding protein C) C0C2 (C0-P/A-C1-m-C2) (UniProt Q14896); assay: microscale thermophoresis titration; conditions: reference: unphosphorylated miniHMM; remark: listed apart in the source
[9] = target: T1, domain C0 of cMyBP-C (UniProt Q14896 1-101); assay: MST; Monolith NT.115; 100 nmol/l Alexa647-labelled protein fixed, partner titrated; 20 mmol/l Mops pH 7, 1 mmol/l MgCl2, 50 mmol/l KCl, 1 mmol/l DTT, 0.05% Tween-20; conditions: both partners purified
T1 construct: source: E. coli BL21(DE3)-RIPL, purified (HisTrapFF, TEV, ion exchange); not shown: His tag, N-terminal, cleaved
T1 sequence (Q14896 1-101): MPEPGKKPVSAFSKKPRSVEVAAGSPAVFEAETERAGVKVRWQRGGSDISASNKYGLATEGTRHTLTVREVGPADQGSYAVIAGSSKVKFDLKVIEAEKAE

[10] = target: T2, domain C2 of cMyBP-C (UniProt Q14896 362-452); assay: as above; conditions: both partners purified
T2 construct: source: E. coli BL21(DE3)-RIPL, purified (HisTrapFF, TEV, ion exchange); not shown: His tag, N-terminal, cleaved
T2 sequence (Q14896 362-452): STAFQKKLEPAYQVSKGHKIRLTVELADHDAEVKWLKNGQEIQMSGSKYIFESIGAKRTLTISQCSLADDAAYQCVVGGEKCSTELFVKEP

[11] = target: T3, C0C1 fragment of cMyBP-C (UniProt Q14896 1-258); assay: as above; conditions: both partners purified
T3 construct: also called C0-P/A-C1; source: E. coli BL21(DE3)-RIPL, purified (HisTrapFF, TEV, ion exchange); not shown: His tag, N-terminal, cleaved
T3 sequence (Q14896 1-258): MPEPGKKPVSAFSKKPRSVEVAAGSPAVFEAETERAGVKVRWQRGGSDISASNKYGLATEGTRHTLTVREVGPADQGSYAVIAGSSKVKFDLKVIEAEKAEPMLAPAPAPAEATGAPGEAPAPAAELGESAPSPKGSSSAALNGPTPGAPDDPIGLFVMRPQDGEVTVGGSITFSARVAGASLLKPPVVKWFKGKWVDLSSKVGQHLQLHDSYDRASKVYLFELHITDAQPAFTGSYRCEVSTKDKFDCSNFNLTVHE

[12] = target: T4, C2C4 segment of cMyBP-C (UniProt Q14896 362-633); assay: as above; conditions: both partners purified
T4 construct: also called C2–C3–C4; C2C4 module; source: E. coli BL21(DE3)-RIPL, purified (HisTrapFF, TEV, ion exchange); not shown: His tag, N-terminal, cleaved
T4 sequence (Q14896 362-633): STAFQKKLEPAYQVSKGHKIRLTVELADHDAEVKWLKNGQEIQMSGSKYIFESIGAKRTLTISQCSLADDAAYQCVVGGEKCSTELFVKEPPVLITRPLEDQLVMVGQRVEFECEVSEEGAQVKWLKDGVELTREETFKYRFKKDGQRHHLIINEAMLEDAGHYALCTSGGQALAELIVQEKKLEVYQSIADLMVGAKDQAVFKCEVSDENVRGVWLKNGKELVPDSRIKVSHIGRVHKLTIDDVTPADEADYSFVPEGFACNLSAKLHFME

[13] = target: T5, C5C7 segment of cMyBP-C (UniProt Q14896 645-967); assay: as above; conditions: both partners purified
T5 construct: also called C5–C6–C7; wildtype C5C7; source: E. coli BL21(DE3)-RIPL, purified (HisTrapFF, TEV, ion exchange); not shown: His tag, N-terminal, cleaved
T5 sequence (looked up): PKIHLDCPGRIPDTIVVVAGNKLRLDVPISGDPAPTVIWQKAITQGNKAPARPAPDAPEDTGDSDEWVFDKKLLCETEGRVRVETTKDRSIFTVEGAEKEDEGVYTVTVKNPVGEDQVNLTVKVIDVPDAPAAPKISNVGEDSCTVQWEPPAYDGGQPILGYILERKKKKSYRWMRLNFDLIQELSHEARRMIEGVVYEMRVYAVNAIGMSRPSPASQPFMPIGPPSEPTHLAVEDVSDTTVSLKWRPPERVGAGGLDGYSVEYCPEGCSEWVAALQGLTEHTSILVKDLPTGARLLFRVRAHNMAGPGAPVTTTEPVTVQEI

[14] = target: T6, domain C1 of cMyBP-C (UniProt Q14896 151-258); assay: as above; conditions: both partners purified
T6 construct: source: E. coli BL21(DE3)-RIPL, purified (HisTrapFF, TEV, ion exchange); not shown: His tag, N-terminal, cleaved
T6 sequence (Q14896 151-258): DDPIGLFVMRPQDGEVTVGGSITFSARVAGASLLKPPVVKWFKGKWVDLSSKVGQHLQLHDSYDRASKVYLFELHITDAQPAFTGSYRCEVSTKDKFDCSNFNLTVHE

[15] = target: T7, C0C2, cMyBP-C spanning domains C0 to C2 (UniProt Q14896 1-452); assay: as above; conditions: both partners purified
T7 construct: also called N-terminal domains (NTD) of cMyBP-C; C0-P/A-C1-m-C2; source: E. coli BL21(DE3)-RIPL, purified (HisTrapFF, TEV, ion exchange); not shown: His tag, N-terminal, cleaved
T7 sequence (Q14896 1-452): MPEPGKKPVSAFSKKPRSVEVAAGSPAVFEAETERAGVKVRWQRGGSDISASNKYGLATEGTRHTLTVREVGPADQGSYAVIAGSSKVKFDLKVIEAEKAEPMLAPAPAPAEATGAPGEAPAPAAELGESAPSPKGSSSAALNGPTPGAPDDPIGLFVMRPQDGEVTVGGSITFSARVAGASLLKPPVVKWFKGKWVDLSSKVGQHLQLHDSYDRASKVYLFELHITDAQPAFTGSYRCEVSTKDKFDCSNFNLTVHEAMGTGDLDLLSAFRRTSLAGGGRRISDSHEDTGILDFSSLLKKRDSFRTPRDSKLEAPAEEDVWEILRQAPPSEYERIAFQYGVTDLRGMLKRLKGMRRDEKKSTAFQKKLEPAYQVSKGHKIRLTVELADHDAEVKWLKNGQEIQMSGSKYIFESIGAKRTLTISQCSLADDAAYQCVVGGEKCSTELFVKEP

[16] = target: T8, bovine β-cardiac myosin S1 (bovine, UniProt Q9BE39 1-1935; P85100 1-199; Q3SZE5 1-166, Alexa 647-NHS label (chain and site not stated)); assay: as above
T8 construct: β-cardiac myosin heavy chain (MHC), bovine, the part that lies in subfragment 1; essential light chain (ELC) of bovine cardiac myosin, labelled on the gel of isolated S1; regulatory light chain (RLC) of bovine cardiac myosin, labelled on the gel of isolated S1; the text says that an intact RLC neck region is not present in this S1; Used at 100 nmol/l as the Alexa647-labelled partner in MST; also …
T8 sequence (Q9BE39 whole entry, chain 1 of 2, the tested form may be a part): as the sequence (Q9BE39 whole entry, chain 1 of 2, the tested form may be a part) above
T8 sequence (P85100 whole entry, chain 2 of 2, the tested form may be a part): as the sequence (P85100 whole entry, chain 2 of 2, further chain, the tested form may be a part) above

[17] = target: miniHMM, recombinant fragment of human cardiac myosin containing the myosin S2Δ tail domain bound to two RLCs (human), P12883; assay: MST; as the other MST titrations but pH adjusted to 6.2 for the isolated m-motif; 100 nmol/l Alexa647-labelled protein fixed
[18] = target: T8, bovine β-cardiac myosin S1; assay: as above; conditions: both partners purified
[19] = target: B2; assay: as above; conditions: both partners purified

Molecule: cMyBP-C (cardiac myosin-binding protein C) C0C2 (C0-P/A-C1-m-C2) (from UniProt Q14896) PKA tris-phosphorylated C0C2-3P, IEC purified
- KD [4]: weaker; reference 2.7 ± 0.1
- KD [5]: weaker; reference 3.4 ± 0.1
- KD [6]: same; reference 3.4 ± 0.3

Molecule: domain C2 of cMyBP-C (from UniProt Q14896 362-452) (domain or fragment)
- Kd [1]: 42.3 µM

Molecule: domain C3 of cMyBP-C (from UniProt Q14896 453-543) (domain or fragment)
- Kd [1]: 25 µM

Molecule: myosin regulatory light chain (RLC) in miniHMM (from UniProt P10916) cMLCK-phosphorylated miniHMM
- KD [7]: stronger; reference 9.7 ± 0.5
- KD [8]: same; reference 3.4 ± 0.1

Molecule: domain C0 of cMyBP-C (from UniProt Q14896 1-101) (domain or fragment)
- Kd [1]: 91.3 µM

B1: miniHMM, recombinant fragment of human cardiac myosin containing the myosin S2Δ tail domain bound to two RLCs (complex)
chain 1: RDSLLVIQWNIRAFMGVKNWPWMKLYFKIKPLLKSAEREKEMASMKEEFTRLKEALEKSEARRKELEEKMVSLLQEKNDLQLQVQAEQDNLADAEERCDQLIKNKIQLEAKVKEMNERLEDEEEMNAELTAKKRKLEDECSELKRDIDDLELTLAK
chain 2: APKKAKKRAGGANSNVFSMFEQTQIQEFKEAFTIMDQNRDGFIDKNDLRDTFAALGRVNVKNEEIDEMIKEAPGPINFTVFLTMFGEKLKGADPEETILNAFKVFDPEGKGVLKADYVREMLTTQAERFSKEEVDQMFAAFPPDVTGNLDYKNLVHIITHGEEKD
modifications: Limits not printed. C-terminus from S2Δ as the first 126 residues of S2 (838-963 by convention). N-terminus taken at the start of the RLC-binding heavy-chain helix (about 808). RLC initiator Met …
- Kd [9]: 335 µM
- Kd [10]: 502 µM
- Kd [11]: 10.3 µM
- Kd [12]: 4.7 µM
- Kd [13]: 3.2 µM
- Kd [14]: 17 µM
- Kd [15]: 3.4 µM

Molecule: B2
- Kd [16]: 0.6 µM
- Kd [11]: 199 µM
- Kd [13]: 25.8 µM

B3: isolated m-motif of cMyBP-C (domain or fragment)
chain: HEAMGTGDLDLLSAFRRTSLAGGGRRISDSHEDTGILDFSSLLKKRDSFRTPRDSKLEAPAEEDVWEILRQAPPSEYERIAFQYGVTDLRGMLKRLKGMRRDEKK
modifications: here or on the partner: Unphosphorylated (bacterial expression). Limits taken as the interval between the annotated C1 (153-256) and C2 (362-452) domains. / Limits not printed. C-terminus from S2Δ as the first 126 residues o
- Kd [17]: 49.7 µM

B4: isolated m-motif of cMyBP-C (domain or fragment)
chain: HEAMGTGDLDLLSAFRRTSLAGGGRRISDSHEDTGILDFSSLLKKRDSFRTPRDSKLEAPAEEDVWEILRQAPPSEYERIAFQYGVTDLRGMLKRLKGMRRDEKK
- Kd [18]: 183 µM
- Kd [19]: 41.4 µM

The next lines start with the values.

- Kd [1]: 0.38 µM
Molecule: C2C4 segment of cMyBP-C (from UniProt Q14896 362-633) (domain or fragment)

- Kd [1]: 2.2 µM
Molecule: C0C2-3P, tris-phosphorylated C0C2 (from UniProt Q14896 1-452) (domain or fragment)

- Kd [1]: 0.77 µM
- EC50 [2]: 3.8 µM
Molecule: C5C7 segment of cMyBP-C (from UniProt Q14896 645-967) (domain or fragment)

- Kd [1]: 3.4 µM
- Kd [3]: 6.5 µM
Molecule: C0C2, cMyBP-C spanning domains C0 to C2 (from UniProt Q14896 1-452) (domain or fragment)

- Kd [1]: 0.43 µM
- Kd [3]: 73.9 µM
Molecule: C5C7-N755K (from UniProt Q14896 1-1274) (domain or fragment)

- Kd [1]: 2.5 µM
Molecule: domain C4 of cMyBP-C (from UniProt Q14896 544-633) (domain or fragment)

- Kd [1]: 3.8 µM
Molecule: C0C1 fragment of cMyBP-C (from UniProt Q14896 1-258) (domain or fragment)

- Kd [1]: 0.61 µM
- Kd [3]: 32.6 µM
Molecule: C5C7-R943Q (from UniProt Q14896 1-1274) (domain or fragment)

- Kd [1]: 0.51 µM
Molecule: C0C2-truncated cMyBP-C (ΔC0C2-cMyBP-C) (from UniProt Q14896 453-1274) (domain or fragment)

- Kd [1]: 0.3 µM
Molecule: full-length cardiac myosin-binding protein C (cMyBP-C) (from UniProt Q14896 1-1274) (natural protein)

- Kd [1]: 1.3 µM
- Kd [3]: 59.1 µM
Molecule: C5C7-R820Q (from UniProt Q14896 1-1274) (domain or fragment)

- Kd [1]: 3.8 µM
Molecule: domain C1 of cMyBP-C (from UniProt Q14896 151-258) (domain or fragment)
